The source of these data is the supplement of paper PMC12783771.

Substitutions are numbered along the chain they refer to. ± gives the standard deviation of the averaged measurements.

B1: library; a variant is named by its letters at X, in order (parent)
chain: MNIQIGELAKRTACPVVTIRFYEQEGLLPPPGRSRGNFRLYGEEHVERLQFIRHCRSLDMPLSDVRTLLSYRKRPDQDCGEVXMLLDEHIRQVESRIGALLELKHHLVELREACSGARPAQSCGILQXLSXCVCXTRGTTAHXSD
B2: library; a variant is named by its letters at X, in order (parent)
chain: B1 chain with D64X, K104X, L107X

Series [1] covers variants of B1. Description: sfGFP reporter fluorescence (15 h) (µM FITC); higher = higher leak. The settings on record: library round: Round 2; ligand: none. As to the method: (§1)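 Cell-free biosensing: 1 µL Echo-assembled CFE reactions with linear PbrR variant templates (5 nM) and pPbrR-sfGFP reporter, with 1 µM Pb, 30 µM Zn or no ligand; endpoint sfGFP fluorescence after 15 h at 30 °C calibrated as µM FITC. Round 2 ML-predicted PbrR mutants; up to 3 biological replicates.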

In series [2] the parent is B1. Description: sfGFP reporter fluorescence (15 h) (µM FITC); higher = stronger transcriptional activation. The settings on record: library round: Round 2. Here is the method: as §1
In series [3] the parent is B2. Description: sfGFP reporter fluorescence (15 h) (µM FITC); higher = higher leak. The following applies: library round: Round 3; ligand: none. As to the method:
(§2)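 Cell-free biosensing: 1 µL Echo-assembled CFE reactions with linear PbrR variant templates (5 nM) and pPbrR-sfGFP reporter, with 1 µM Pb, 30 µM Zn or no ligand; endpoint sfGFP fluorescence after 15 h at 30 °C calibrated as µM FITC. Round 3 ML-predicted PbrR mutants; up to 3 biological replicates.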

The variants in series [4] derive from B2. The series is described as follows: sfGFP reporter fluorescence (15 h) (µM FITC); higher = stronger transcriptional activation. The following applies: library round: Round 3. Here is the method: as §2

For MNIQIGELAKRTACPVVTIRFYEQEGLLPPPGRSRGNFRLYGEEHVERLQFIRHCRSLDMPLSDVRTLLSYRKRPDQDCGEVMMLLDEHIRQVESRIGALLELKHHLVELREACSGARPAQSCGILQGLSACVCATRGTTAHPSD, the sfGFP reporter fluorescence in series [1] amounted to 0.0477 ± 0.0018; in series [2] (ligand: 1 µM Pb) it was 0.0933 ± 0.0042; in series [2] (ligand: 30 µM Zn), 0.0535 ± 0.0035.

Regarding MNIQIGELAKRTACPVVTIRFYEQEGLLPPPGRSRGNFRLYGEEHVERLQFIRHCRSLDMPLSDVRTLLSYRKRPDQDCGEVNMLLDEHIRQVESRIGALLELKHHLVELRDACSGARPAQSCGILQGLSACVCATRGTTAHFSD, the sfGFP reporter fluorescence in series [1] worked out at 0.0594 ± 0.0017; in series [2] (ligand: 1 µM Pb), 0.0886 ± 0.0049; in series [2] (ligand: 30 µM Zn), 0.82 ± 0.062.

With MNIQIGELAKRTACPVVTIRFYEQEGLLPPPGRSRGNFRLYGEEHVERLQFIRHCRSLDMNLSKVRTLLSYRKRPDQDCGEVNMLLDEHIRQVESRIGALLELVHHLVELREACSGARPAQSCGILQALSDCVCDTRGTTAHPSD, the sfGFP reporter fluorescence in series [1] came out at 0.917 ± 0.079; in series [2] (ligand: 1 µM Pb), 1.61 ± 0.16; in series [2] (ligand: 30 µM Zn) it was 3.1 ± 0.27.

Consider MNIQIGELAKRTACPVVTIRFYEQEGLLPPPGRSRGNFRLYGEEHVERLQFIRHCRSLDMPLSDVRTLLSYRKRPDQDCGEVSMLLDEHIRQVESRIGALLELKHHLVELREACSGARPAQSCGILQALSDCVCATRGTTAHPSD, for which the sfGFP reporter fluorescence in series [1] came out at 0.0791 ± 0.013; in series [2] (ligand: 1 µM Pb), 0.19 ± 0.019; in series [2] (ligand: 30 µM Zn) it was 2.33 ± 0.44.

On to MNIQIGELAKRTACPVVTIRFYEQEGLLPPPGRSRGNFRLYGEEHVERLQFIRHCRSLDMPLSDVRTLLSYRKRPDQDCGEVTMLLDEHIRQVESRIGALLELKHHLVELREACSGARPAQSCGILQGLSACVCATRGTTAHPSD, for which the values for the sfGFP reporter fluorescence in series [1], in series [2] (ligand: 1 µM Pb) and in series [2] (ligand: 30 µM Zn) were 0.0444 ± 0.0012, 0.0747 ± 0.0046 and 0.359 ± 0.0081, respectively.

For MNIQIGELAKRTACPVVTIRFYEQEGLLPPPGRSRGNFRLYGEEHVERLQFIRHCRSLDMPLSDVRTLLSYRKRPDQDCGEVNMLLDEHIRQVESRIGALLELKHHLVELREACSGARPAQSCGILQELSDCVCATRGTTAHTSD, the sfGFP reporter fluorescence in series [1] was determined as 0.0492 ± 0.001; in series [2] (ligand: 1 µM Pb), 0.0597 ± 0.0011; in series [2] (ligand: 30 µM Zn) it was 0.594 ± 0.053.

Consider MNIQIGELAKRTACPVVTIRFYEQEGLLPPPGRSRGNFRLYGEEHVERLQFIRHCRSLDMPLSDVRTLLSYRKRPDQDCGEVNMLLDEHIRQVESRIGALLELRHHLVELREACSGARPAQSCGILQALSDCVCATRGTTAHPSD, for which the figures for the sfGFP reporter fluorescence in series [1], in series [2] (ligand: 1 µM Pb) and in series [2] (ligand: 30 µM Zn) were 0.123 ± 0.0024, 0.419 ± 0.072 and 2.34 ± 0.033, respectively.

Consider MNIQIGELAKRTACPVVTIRFYEQEGLLPPPGRSRGNFRLYGEEHVERLQFIRHCRSLDMPLSDVRTLLSYRKRPDQDCGEVNMLLDEHIRQVESRIGALLELKHHLLELREACSGARPAQSCGILQAMSDCVCPTRGTTAHPSD, for which the sfGFP reporter fluorescence in series [1] came out at 0.0617 ± 0.0065; in series [2] (ligand: 1 µM Pb), 0.0681 ± 0.0059; in series [2] (ligand: 30 µM Zn), 0.734 ± 0.067.

In the case of MNIQIGELAKRTACPVVTIRFYEQEGLLPPPGRSRGNFRLYGEEHVERLQFIRHCRSLDMPLSDVRTLLSYRKRPDQDCGEVTMLLDEHIRQVESRIGALLELKHHLLELREACSGARPAQSCGILQGLSSCVCRTRGTTAHPSD, the sfGFP reporter fluorescence worked out at 0.0395 ± 0.0015 in series [3], 0.117 ± 0.0088 in series [4] (ligand: 1 µM Pb) and 0.28 ± 0.012 in series [4] (ligand: 30 µM Zn).

Take MNIQIGELAKRTACPCVTIRFYEQEGLLPPPGRSRGNFRLYGEEHVERLQFIRCPRSLDMPLSLVRTLLSYRKRPDQDCGEVIMLLDEHIRQVESRIGALLELVHLCVELREACSGARPAQSCGILQGLSACVCATRGTTAHPSD: the values for the sfGFP reporter fluorescence in series [3], in series [4] (ligand: 1 µM Pb) and in series [4] (ligand: 30 µM Zn) were 0.0465 ± 0.0015, 0.0427 ± 0.0018 and 0.0473 ± 0.0049, respectively.

For the variant MNIQIGELAKRTACPVVTIRFYEQEGLLPPPGRSRGNFRLYGEEHVERLQFIRHCRSLDMPLSEVRTLLSYRKRPDQDCGEVNMLLDEHIRQVESRIGALLELKHHCVELREACSGARPAQSCGILQMLSDCVCATRGTTAHKSD, the sfGFP reporter fluorescence turned out to be 0.33 ± 0.045 in series [3], 1.43 ± 0.15 in series [4] (ligand: 1 µM Pb) and 2.44 ± 0.15 in series [4] (ligand: 30 µM Zn).

As for MNIQIGELAKRTACPCVTIRFYEQEGLLPPPGRSRGNFRLYGEEHVERLQFIRCPRSLDMPLSLVRTLLSYRKRPDQDCGEVIMLLDEHIRQVESRIGALLELLHACVELREACSGARPAQSCGILQGLSACVCATRGTTAHPSD, the figures for the sfGFP reporter fluorescence in series [3], in series [4] (ligand: 1 µM Pb) and in series [4] (ligand: 30 µM Zn) were 0.0465 ± 0.0014, 0.0436 ± 0.0014 and 0.0502 ± 0.002, respectively.

Turning to MNIQIGELAKRTACPVVTIRFYEQEGLLPPPGRSRGNFRLYGEEHVERLQFIRHCRSLDMNLSDVRTLLSYRKRPDQDCGEVNMLLDEHIRQVESRIGALLELKHHCVELREACSGARPAQSCGILQMLSDCVCATRGTTAHKSD, the sfGFP reporter fluorescence in series [3] was 2.25 ± 0.34; in series [4] (ligand: 1 µM Pb), 2.76 ± 0.33; in series [4] (ligand: 30 µM Zn), 3.11 ± 0.2.

Take MNIQIGELAKRTACPVVTIRFYEQEGLLPPPGRSRGNFRLYGEEHVERLQFIRHCRSLDMPLSDVRTLLSYRKRPDQDCGEVTMLLDEHIRQVESRIGALLELKHHLVELREACSGARPAASCGILQGLSSCVCPTRGTTAHPSD: the sfGFP reporter fluorescence in series [3] turned out to be 0.0408 ± 0.0027; in series [4] (ligand: 1 µM Pb), 0.186 ± 0.0074; in series [4] (ligand: 30 µM Zn), 0.3204 ± 0.0016.
